Molecular target: hTERT (human telomerase reverse transcriptase) (human) (UniProt O14746)
Assay: cell-based or functional assay

hTERT (human telomerase reverse transcriptase) (human), sequence (O14746 whole entry): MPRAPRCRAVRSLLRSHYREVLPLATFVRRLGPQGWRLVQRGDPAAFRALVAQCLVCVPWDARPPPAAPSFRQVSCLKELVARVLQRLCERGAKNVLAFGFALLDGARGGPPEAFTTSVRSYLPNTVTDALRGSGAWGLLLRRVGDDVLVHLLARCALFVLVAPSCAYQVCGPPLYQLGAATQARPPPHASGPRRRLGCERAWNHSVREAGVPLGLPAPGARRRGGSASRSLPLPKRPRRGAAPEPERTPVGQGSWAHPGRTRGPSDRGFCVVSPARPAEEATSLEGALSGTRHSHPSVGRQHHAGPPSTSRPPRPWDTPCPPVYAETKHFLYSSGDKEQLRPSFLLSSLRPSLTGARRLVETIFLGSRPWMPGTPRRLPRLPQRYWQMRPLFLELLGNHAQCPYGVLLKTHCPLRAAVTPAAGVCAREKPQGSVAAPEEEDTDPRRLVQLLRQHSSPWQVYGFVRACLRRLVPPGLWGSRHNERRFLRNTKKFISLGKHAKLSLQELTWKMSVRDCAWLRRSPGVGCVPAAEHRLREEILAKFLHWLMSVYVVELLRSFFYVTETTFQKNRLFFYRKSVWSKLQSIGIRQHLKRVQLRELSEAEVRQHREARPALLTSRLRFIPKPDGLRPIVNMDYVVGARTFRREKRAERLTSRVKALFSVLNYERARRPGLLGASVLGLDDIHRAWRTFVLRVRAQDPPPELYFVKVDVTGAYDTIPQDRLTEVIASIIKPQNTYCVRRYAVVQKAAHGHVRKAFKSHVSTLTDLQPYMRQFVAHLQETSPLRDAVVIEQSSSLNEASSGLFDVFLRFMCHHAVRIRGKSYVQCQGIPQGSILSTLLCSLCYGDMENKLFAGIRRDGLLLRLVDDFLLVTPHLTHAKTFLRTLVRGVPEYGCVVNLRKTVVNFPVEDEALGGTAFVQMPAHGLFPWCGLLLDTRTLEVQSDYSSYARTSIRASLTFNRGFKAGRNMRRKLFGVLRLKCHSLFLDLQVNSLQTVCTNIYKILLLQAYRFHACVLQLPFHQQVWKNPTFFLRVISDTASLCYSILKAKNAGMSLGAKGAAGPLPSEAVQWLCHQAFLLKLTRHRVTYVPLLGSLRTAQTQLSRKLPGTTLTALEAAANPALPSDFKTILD

relative telomerase activity (TRAPEZE kit, real time PCR) in transfected MRC 5 cells against non-transfected cells: 83.4 % elevation
Substance: LRP102-295::FLAG fragment (from UniProt P14206 102-295) (receptor)
